Values quoted from earlier work in article PMC8690575.

Target: Rhodopsin (Mus musculus) (UniProt P15409)

Kd: 150 µM
Substance: Arrestin-1 (from UniProt P20443)
